# Measurements taken from the supplement of paper PMC10567573.
# ± gives the standard deviation.
# Experiment: protein stability index of a GFP-peptide fusion (GPS, HEK-293T) (PSI 1-6); higher = more stable
# Conditions: c terminus: a fixed tail appended
# 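Further: 24-mer peptide tiles fused after GFP, lentivirally expressed, FACS-sorted into six equal bins by GFP/DsRed ratio, decoded by Illumina sequencing, PSI is the read-weighted mean bin number.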
Sequence,protein stability index (treatment: DMSO),"protein stability index (treatment: MLN4924 1 uM, 8 h)"
AAAYGHALEQYEGESWRESARYLE [P3H4],4.19 ± 0.23,4.21 ± 0.21
AAGEPLECPTCGHSYNVTQRRPRV [RNF208],3.79 ± 0.16,4.18 ± 0.21
AAGGVPGGGSNNGKTPVCHQCHKV [PDLIM7],3.32 ± 0.62,3.85 ± 0.56
AAGKAEVVLGNIIKKKGWRRSSLV [KCNAB2],2.87 ± 0.24,2.96 ± 0.31
AAINSIYSNTDANILFYVVGLRNT [GLT8D2],2.97 ± 0.91,2.75 ± 0.73
AAKQNHVTADDFVQTSVIGSNGYI [EHMT1],3.56 ± 0.17,3.68 ± 0.1
AALDGGRSLEELTRLAFELFAEEQ [LPCAT4],2.91 ± 0.24,3.33 ± 0.38
AAQELENQMKERQGLFFDMEAYLP [TMEM120A],3.69 ± 0.27,3.87 ± 0.21
AARGKERCVRVFLEHGADPTVKDL [ASB7],3.73 ± 0.17,3.76 ± 0.38
AATGGATLAQTISEAAIGGAMLGQ [HDAC6],4.1 ± 0.57,4.11 ± 0.21
ACFLVRGLLLRGAVDGILHMFTPK [SLC6A17],2.39 ± 0.73,2.83 ± 1.2
ACNFEPHESFFSLFSDPRSTRLTR [ZER1],2.86 ± 0.22,2.92 ± 0.21
ADGDGGGGQCCRRQDSPSPDFYKQ [PCDHGC5],4.67 ± 0.25,4.44 ± 0.4
ADKKRSGKKKISKADIGAPSGFKH [WAS],4.63 ± 0.27,4.87 ± 0.24
ADPLQLNKALSIILHLICLLEKVP [FEM1C],3 ± 0.24,3.16 ± 0.9
AEAAPELDLFAMKPPETSVPVVTP [SNAP91],4.89 ± 0.15,4.98 ± 0.1
AEFILLGLLEAPGLQPVVFVLFLF [OR3A1],2.68 ± 0.32,2.95 ± 0.4
AEKSVAPSNTGSRTTSVRCRGIPR [NEK8],4.63 ± 0.16,4.7 ± 0.26
AEPSRFSSSDSDFDDEEPRKFYVH [FCHO1],4.87 ± 0.18,4.87 ± 0.13
AEQEPTRKLFEVESVTHHDYRMEL [SPAG8],4.16 ± 0.16,4.33 ± 0.18
AESDYSNNIMKCRSRYDGHRIWMY [LOXL2],2.4 ± 0.29,2.1 ± 0.38
AFHINKGLVKKYMNSLLIGELSPE [FADS1],2.45 ± 0.47,2.32 ± 0.26

Sequence,protein stability index (treatment: DMSO),"protein stability index (treatment: MLN4924 1 uM, 8 h)"
AGGAPGSPIPSPPGPGDDLCSDLE [HES6],5.51 ± 0.45,5.34 ± 0.4
AGIELIIEDDIRPEKQKRKPGLRR [MYBL2],3.63 ± 0.24,4.26 ± 0.43
AGREVFDYSHRQKEQDVEKELRDG [NFE2L1],4.99 ± 0.25,5.53 ± 0.52
AGRRMFPSYKVKVTGLNPKTKYIL [TBX5],2.12 ± 0.4,2.2 ± 0.29
AGYEVDKIAQNLDFVNLMAYDFHG [CHIT1],2.28 ± 0.41,2.36 ± 0.19
AGYYELAQVLLAMHANVEDRGIKG [ANKRD17],2.02 ± 0.21,1.96 ± 0.34
AHAVLGQHSHVVRYFSAWAEDDHM [WEE1],3.55 ± 0.43,3.71 ± 0.057
AIMRSPQMVSAIVRTMQNTNDVET [CTNNB1],3.77 ± 0.098,3.81 ± 0.14
AITRVSDRFSGETSAAALSPMSAA [SMTNL2],4.06 ± 0.15,3.63 ± 0.29
AKGIPQRAPPKRKRKRVKQRINTY [PCMTD1],4.41 ± 0.14,4.58 ± 0.16
AKSLSFRKGELVTASKAIIEKEYQ [ADD1],3.71 ± 0.19,3.94 ± 0.45
AKVNYVKNNICFMSHHQEELVPKQ [SLC2A12],3 ± 0.41,3.16 ± 0.41
ALDSADLPPPSALKKGSKEKQADF [NFE2L1],5.33 ± 0.2,5.39 ± 0.21
ALHHVHTHLILHRDLKTQNILLDK [NEK8],2.25 ± 0.19,2.29 ± 0.25
ALIETSYVKVLHHMVKISGGPRIS [MAGEA6],2.93 ± 0.41,2.88 ± 0.51
ALKHPWISHRSTVASCMHRQETVD [CAMK2A],3.18 ± 0.13,3.35 ± 0.16
ALLFTGIAVLGIVMLKRIHSLYRR [SCAMP3],2.2 ± 0.52,1.96 ± 0.25
ALQTLLTLIVVDASGLGLEITTQF [SLC19A2],3 ± 0.39,3.31 ± 0.56
ALSFTLLGSAPLDQEPLLSIDLGT [NEK8],2.29 ± 0.36,2.44 ± 0.23
AMFAADPKKPIGGNIIAHASTTRL [RAD51],3.32 ± 0.087,3.39 ± 0.12
AMFLGDAAAHWYGGAEMRTQHWPI [MYORG],2.41 ± 0.81,2.17 ± 0.25
AMFPETLDEGMQIPSTQFDAAHPT [CTNNB1],4.5 ± 0.091,4.49 ± 0.28

Sequence,protein stability index (treatment: DMSO),"protein stability index (treatment: MLN4924 1 uM, 8 h)"
ANFSLGSINQRLNKRERSKLKNLR [RNF180],2.91 ± 0.35,3.28 ± 0.43
ANLAASGGYAIAVVLLQGAELLLA [TSPAN10],2.97 ± 0.54,3.05 ± 0.92
APANVAKIQLRLAGQKRKHSEGRV [LOXL2],3.88 ± 0.13,4.53 ± 0.32
APCRSAQASVSCALEALEPFWEVL [HDAC6],3.32 ± 0.59,2.69 ± 0.82
APGFGEDVPNRLVDNIDMIDGDGD [BEX5],5.5 ± 0.23,5.59 ± 0.19
APPLPGAESFPGSQVMGSGRGSLS [PLEKHN1],4.82 ± 0.28,4.61 ± 0.2
APPRRLRSRKVSCPLTRSNGDLSR [FCHO1],4.16 ± 0.17,4.34 ± 0.062
APVANSYRGTLKRQPAFDTFDGSL [ETS2],3.4 ± 0.097,3.42 ± 0.13
AQKALDLPSSGEGLAFFTFPNIAS [HMOX1],2.88 ± 0.2,2.96 ± 0.25
ARLASPLPREEEIVFPEKLNGSVL [ADAMTS4],4.01 ± 0.42,4.16 ± 0.15
ARLQDFQELELVLMISENNFLFRN [ANKRD40],2.97 ± 0.63,2.66 ± 0.58
ARQHALYIWEKSIGNLVKILHGTR [RBBP5],2.26 ± 0.36,2.5 ± 0.41
ARRELQAEREALQARLRDVSRREG [ZBED3],4.79 ± 0.15,4.8 ± 0.18
ARYAQQKHRIRRVLIVDWDVHHGQ [HDAC6],2.33 ± 0.19,2.31 ± 0.42
ASVVLPARELQEALPEAPAPLLPH [BCL2L13],4.34 ± 0.17,4.35 ± 0.22
ATDMISIFEPPVRNSGIIGGKYLG [EFHC1],2.92 ± 0.25,3.16 ± 0.21
AVINDIANLPVPTIAAIDGLALGG [AUH],2.79 ± 0.21,2.62 ± 0.23
AYGNRTECRNPQELESIRQDRDAL [FEM1B],4.71 ± 0.24,4.68 ± 0.16
AYHDPMLKLSIMSEEELTHIFGDL [NET1],3.28 ± 0.24,3.5 ± 0.48
CAERLQSEEQVSKNLFGPPLESAF [FCHO1],3.36 ± 1.1,3.58 ± 0.52
CAINKVGVSFSTVENELMISYLMF [FAM98B],2.63 ± 0.48,2.81 ± 0.41
